The values that follow come from paper PMC5840378, “Cytochrome c speeds up caspase cascade activation by blocking 14-3-3ε-dependent Apaf-1 inhibition” (Cell Death & Disease, 2018).

Experiment in all cases: ITC; Auto-ITC200, 25 °C; 2-μL injections of 300 μM Cc into the cell with 20 μM 14-3-3ε species or peptide; 10 mM sodium phosphate pH 7.4
Conditions in all cases: both partners purified

The target in assay [1] is T1, 14-3-3ε FL K50E (UniProt P62258 1-255, K50E).
T1 construct: 14-3-3ε full length with K50E; source: E. coli BL21 (DE3), purified (Ni Sepharose); mutant obtained from Mutagenex Inc
T1 sequence (looked up): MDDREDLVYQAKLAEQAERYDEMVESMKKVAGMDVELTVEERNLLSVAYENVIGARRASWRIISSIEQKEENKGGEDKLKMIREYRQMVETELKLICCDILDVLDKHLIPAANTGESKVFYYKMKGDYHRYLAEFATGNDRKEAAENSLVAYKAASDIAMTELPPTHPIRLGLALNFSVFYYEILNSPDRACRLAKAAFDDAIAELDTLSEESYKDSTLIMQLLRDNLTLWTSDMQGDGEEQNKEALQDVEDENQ

For assay [2], the target named is T2, 14-3-3ε C-terminal peptide (14-3-3ε_(234-255)) (UniProt P62258 234-255).
T2 construct: 14-3-3ε, C-terminal tail, residues 234-255; also called non-acetylated peptide; C-terminal tail of 14-3-3ε; source: bought: Genosphere Biotechnologies (France)
T2 peptide (looked up): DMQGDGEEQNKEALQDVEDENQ

Assay [3] has as its target T3, 14-3-3ε FL D21K (UniProt P62258 1-255, D21K).
T3 construct: 14-3-3ε full length with D21K; source: E. coli BL21 (DE3), purified (Ni Sepharose); mutant obtained from Mutagenex Inc
T3 sequence (looked up): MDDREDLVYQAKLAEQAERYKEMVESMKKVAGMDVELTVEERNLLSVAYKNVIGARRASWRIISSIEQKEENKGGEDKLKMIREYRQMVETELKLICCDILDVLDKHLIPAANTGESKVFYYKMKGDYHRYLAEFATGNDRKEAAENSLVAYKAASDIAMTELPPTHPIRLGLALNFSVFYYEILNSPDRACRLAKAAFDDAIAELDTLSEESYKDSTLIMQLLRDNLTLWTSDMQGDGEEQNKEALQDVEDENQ

Assay [4] has as its target T4, 14-3-3ε full length (14-3-3ε FL), recombinant (UniProt P62258 1-255).
T4 construct: 14-3-3ε (14-3-3 protein epsilon), full length, cloned NdeI-XhoI into pET-28a; Homodimer by ultracentrifugation and light scattering; The printed cloning primers seem to add a Met before Met1 and a Glu after the last residue; also called 14-3-3ε FL WT; source: E. coli BL21 (DE3), purified (Ni Sepharose)
T4 sequence (looked up): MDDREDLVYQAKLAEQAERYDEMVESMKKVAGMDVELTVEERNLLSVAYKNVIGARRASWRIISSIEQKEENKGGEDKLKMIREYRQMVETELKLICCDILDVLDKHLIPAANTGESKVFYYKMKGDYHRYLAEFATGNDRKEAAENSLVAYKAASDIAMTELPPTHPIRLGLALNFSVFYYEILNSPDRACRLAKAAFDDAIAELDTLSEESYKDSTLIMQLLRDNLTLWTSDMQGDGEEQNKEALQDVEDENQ

The target of assay [5] is T5, 14-3-3ε FL D99K (UniProt P62258 1-255, D99K).
T5 construct: 14-3-3ε full length with D99K; source: E. coli BL21 (DE3), purified (Ni Sepharose); mutant obtained from Mutagenex Inc
T5 sequence (looked up): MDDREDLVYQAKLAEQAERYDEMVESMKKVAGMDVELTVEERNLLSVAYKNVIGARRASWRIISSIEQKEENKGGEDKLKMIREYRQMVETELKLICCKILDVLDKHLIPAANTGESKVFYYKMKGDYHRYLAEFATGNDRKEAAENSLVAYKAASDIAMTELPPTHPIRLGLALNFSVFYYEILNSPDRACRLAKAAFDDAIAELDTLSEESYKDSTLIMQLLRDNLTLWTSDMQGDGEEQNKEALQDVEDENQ

In assay [6] the target is T6, 14-3-3ε FL S59E (UniProt P62258 1-255, S59E).
T6 construct: 14-3-3ε full length with S59E; source: E. coli BL21 (DE3), purified (Ni Sepharose); mutant obtained from Mutagenex Inc
T6 sequence (looked up): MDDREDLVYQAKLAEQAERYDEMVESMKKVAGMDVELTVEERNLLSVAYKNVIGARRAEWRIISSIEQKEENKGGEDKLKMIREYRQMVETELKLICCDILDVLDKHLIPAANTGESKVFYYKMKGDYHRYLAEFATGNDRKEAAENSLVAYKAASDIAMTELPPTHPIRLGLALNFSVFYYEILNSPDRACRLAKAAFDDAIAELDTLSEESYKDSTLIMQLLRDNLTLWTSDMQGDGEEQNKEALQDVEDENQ

Assay [7] concerns the target T7, 14-3-3ε FL E92K (UniProt P62258 1-255, E92K).
T7 construct: 14-3-3ε full length with E92K; source: E. coli BL21 (DE3), purified (Ni Sepharose); mutant obtained from Mutagenex Inc
T7 sequence (looked up): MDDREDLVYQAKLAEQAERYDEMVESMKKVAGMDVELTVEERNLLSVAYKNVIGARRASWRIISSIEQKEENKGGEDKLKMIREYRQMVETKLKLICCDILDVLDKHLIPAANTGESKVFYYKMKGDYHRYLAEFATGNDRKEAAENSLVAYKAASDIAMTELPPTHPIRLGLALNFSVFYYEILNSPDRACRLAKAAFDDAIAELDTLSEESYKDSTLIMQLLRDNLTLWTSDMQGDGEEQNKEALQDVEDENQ

In assay [8] the target is T8, 14-3-3ε FL S187D (UniProt P62258 1-255, S187D).
T8 construct: 14-3-3ε full length with S187D; source: E. coli BL21 (DE3), purified (Ni Sepharose); mutant obtained from Mutagenex Inc
T8 sequence (looked up): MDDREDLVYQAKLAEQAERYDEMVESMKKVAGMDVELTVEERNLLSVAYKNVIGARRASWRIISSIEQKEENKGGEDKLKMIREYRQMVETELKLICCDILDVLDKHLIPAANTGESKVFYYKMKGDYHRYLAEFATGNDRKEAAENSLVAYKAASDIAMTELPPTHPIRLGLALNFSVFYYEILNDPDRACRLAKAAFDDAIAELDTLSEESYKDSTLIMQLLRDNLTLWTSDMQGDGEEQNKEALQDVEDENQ

B1: cytochrome c (Cc), recombinant (natural protein)
chain: not shown
modifications: heme group; 15N-labelled for the 2D NMR titrations
notes: Met80 is M81 in P99999); Reduced with sodium ascorbate in the NMR experiments; also called hemeprotein; reduced Cc; source: E. coli BL21 (DE3), purified (ionic chromatography, carboxy-methylcellulose)
As to B1, the stoichiometry N – broadly, the number of molecules, sites or subunits per partner or assembly – in assay [1] is 1; in assay [2], 1; in assay [3], 1; in assay [4], 2 Cc per 14-3-3ε FL homodimer; in assay [6], 1; in assay [7], 1. Also, the Kd (in general, the free concentration of one partner at which half of the binding sites on the other are occupied at equilibrium, for simple one-to-one binding) in assay [4] turned out to be 2300 nM. The binding result in assay [5] and in assay [8] was “binds” in each case.
